Paper PMC8913300, “Two distinct classes of cochaperones compete for the EEVD motif in heat shock protein 70 to tune its chaperone activities” (The Journal of Biological Chemistry, 2022)
“And” between values parts separate entries of the source, which are not always exact repeats. Equal values may be shown once. No end group written: not given here.

B7: Hsp72 T636E tracer FITC-Ahx-GSGPEIEEVD (peptide)
peptide: GSGPEIEEVD-OH
modifications: not fully specified (N-terminus); printed as FITC-Ahx-GSGPEIEEVD; also: methods name the dye 5-FAM, not FITC
notes: also called phosphomimetic T636E Hsp72 fluorescent tracer; source: synthetic peptide, bought: GenScript
B8: C terminus of Hsc70 interacting protein (CHIP) (enzyme, human, UniProt Q9UNE7 1-303, looked up)
chain: MKGKEEKEGGARLGAGGGSPEKSPSAQELKEQGNRLFVGRKYPEAAACYGRAITRNPLVAVYYTNRALCYLKMQQHEQALADCRRALELDGQSVKAHFFLGQCQLEMESYDEAIANLQRAYSLAKEQRLNFGDDIPSALRIAKKKRWNSIEERRIHQESELHSYLSRLIAAERERELEECQRNHEGDEDDSHVRAQQACIEAKHDKYMADMDELFSQVDEKRKKRDIPDYLCGKISFELMREPCITPSGITYDRKDIEEHLQRVGHFDPVTRSPLTQEQLIPNLAMKEVIDAFISENGWVEDY
notes: recombinant human CHIP, E3 ubiquitin ligase with a TPR domain; source: E. coli BL21(DE3), purified (Ni-NTA, TEV cleavage, SEC); not shown: His6, N-terminal, cleaved

Columns and labels:
Conditions in all cases: both partners purified
[1] = target: B8; test: fluorescence polarisation; competition; 100 μM unlabeled peptide, 1.58 μM CHIP, 20 nM Hsp72 tracer; 50 mM Hepes pH 7.4, 50 mM KCl, 0.01% Triton X-100; 30 min at room temperature
DnaJB4 [2] = target: T1, DnaJB4 (human, UniProt Q9UDY4 1-337); test: fluorescence polarisation; saturation binding; 20 nM fluorescent Hsp72 tracer, J-domain protein titrated in 2x dilutions (110-0.013 μM told for DnaJB4); 50 mM Tris, 15 mM NaCl, 1 mM DTT, 0.01% Triton X-100, pH 8.0; 30 min at room temperature
T1 construct: DnaJB4, human, recombinant full length class B J-domain protein; the oligomeric state of DnaJB4 is not measured here; also called WT DnaJB4; class B JDP; source: E. coli BL21 (DE3) Rosetta, purified (Ni-NTA, TEV cleavage, SEC on Superdex 200); not shown: His6, N-terminal, cleaved

DnaJB4 [3] = target: T1, DnaJB4; test: fluorescence polarisation; competition; 100 μM unlabeled peptide, 5 μM DnaJB4, 20 nM Hsp72 tracer in JDP binding buffer; 30 min at room temperature; tracer displacement relative to DMSO control
[4] = target: B7; test: fluorescence polarisation; saturation binding; 20 nM fluorescent Hsp72 tracer, CHIP titrated in 2x dilutions (110-0.013 μM); 25 mM Hepes, 50 mM KCl, 0.01% Triton X-100, pH 7.4; 30 min at room temperature

T1 sequence (Q9UDY4 whole entry): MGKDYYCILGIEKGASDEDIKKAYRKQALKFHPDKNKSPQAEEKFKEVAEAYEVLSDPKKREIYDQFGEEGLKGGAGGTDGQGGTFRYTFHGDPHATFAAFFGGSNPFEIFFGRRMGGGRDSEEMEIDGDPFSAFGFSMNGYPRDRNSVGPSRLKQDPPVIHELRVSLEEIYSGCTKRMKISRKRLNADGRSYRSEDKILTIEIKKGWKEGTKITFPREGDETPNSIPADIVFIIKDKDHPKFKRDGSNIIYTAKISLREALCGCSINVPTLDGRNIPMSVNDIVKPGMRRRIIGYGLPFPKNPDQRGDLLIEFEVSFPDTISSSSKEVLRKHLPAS

B1: Hsp72 tracer FITC-Ahx-GSGPTIEEVD (peptide)
peptide: GSGPTIEEVD-OH
modifications: not fully specified (N-terminus); printed as FITC-Ahx-GSGPTIEEVD; also: methods name the dye 5-FAM, not FITC
notes: last 10 residues of Hsp72/HSPA1A; also called fluorescent Hsp72 tracer; Hsp72 probe; source: synthetic peptide, bought: GenScript
binding result [1]: binds
Kd (DnaJB4 [2]): 1840 nM and 1650 nM

B2: Hsp72 C-terminal 10-mer peptide, unlabeled, N-acetylated (peptide)
peptide: Ac-GSGPTIEEVD-OH
notes: last 10 residues of Hsp72/HSPA1A; also called WT Hsp72 peptide; source: synthetic peptide, bought: GenScript
binding result [1]: binds

B3: Hsp72 10-mer peptide with P5 Ile replaced by Met (peptide, UniProt P0DMV8 632-641, looked up)
peptide: Ac-GSGPTMEEVD-OH
notes: also called P5 Met mutant; source: synthetic peptide, bought: GenScript
binding result (DnaJB4 [3]): binds

B4: Hsp72 C-terminal peptide truncated of P10 (9-mer) (peptide, UniProt P0DMV8 633-641, looked up)
peptide: Ac-SGPTIEEVD-OH
notes: source: synthetic peptide, bought: GenScript
binding result (DnaJB4 [3]): binds

B5: Hsp72 C-terminal peptide truncated of P10 and P9 (8-mer) (peptide, UniProt P0DMV8 634-641, looked up)
peptide: Ac-GPTIEEVD-OH
notes: as for B4
binding result (DnaJB4 [3]): binds

B6: Hsp72 C-terminal peptide truncated of P10 to P8 (7-mer PTIEEVD) (peptide)
peptide: Ac-PTIEEVD-OH
notes: last seven amino acids of Hsp72/HSPA1A; source: synthetic peptide, bought: GenScript
binding result (DnaJB4 [3]): binds

B7
binding result (DnaJB4 [2]): binds

B8
fold weakening of the affinity against the WT tracer [4]: 5 fold
